Assay results as given in a protein production outcome set (Wang et al. 2014).

Assay: label from the status in PepcDB records
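Also: failed if final PepcDB status was selected cloned or expressed and not failed if soluble or beyond.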

Sequence	protein production
MWLMSHDMLAIIWFGLWGVIWTVYFILDGYALGNGMIFPFVTKDRQERNQLQEAIGPFWGGNEVWLITAGGATFAAFPVTYANMFSYLYTPLFLVLLALFARAAGLEFMHKDDSPIWQKTCKWAFAIGSFLIAFLFGVTFANLYYGLQIGKNGYEGNLLSLLNHYGILGGLFFTAIFVVSGALWVMIKTTGEVSDRAYKIARPFSMAAAIILAIFYVATANRTNLFQNFTEYPVLFILPVLAMLMSVLALIMVYKHKIGLAFTFVCLTIAMFMTTGFAGMFPRMLPSRINDAYSTTLYNAAGSQLNLKIMFFVAMVMVPIVIGYQLWSYSIFKNKIHKDSAKGYH	failed
MWLYYLQVVMDMRVYVEGYGCVLNTADTEIIKNSLKKHGFEVVNNLEEADIAIINTCVVRLETENRMIYRINELKNLGKEVVVAGCLPKALKNKVKGFLHIYPREAHKAGEILKNYVEKHYRMPYIEEDINKTLYKKLDYLKPSLITPLPICEGCIGNCSYCIVKIARGGLISYPREKIVNKAKELINKGAKCLLITAQDTACYGFDIGDNLANLLNELTQIKGEFIMRVGMMHAKNAELILDELIEVYQNEKVGKFLHLPLQSGDDEILKRMKRGYTVDEFKDIVNEFRRKIKNLCFTTDIIVGFPGETEEQFQNTLEVLRELKPDYIHGAKYSQRKGTEAAKMKQIDTKIRKRRSEILDKLRRELSYLNNKKYIGKAMKVLVLDEGKGYTDNFKVVKFEGGEVGEFRKVKITDAKTFGLKGELILLEHHHHHH	not failed
MWMPPRPEEVARKLRRLGFVERMAKGGHRLYTHPDGRIVVVPFHSGELPKGTFKRILRDAGLTEEEFHNL	not failed
MWSVTGALTVAVPPTAAACRTKPFLISSSFPKQTKKLHLSSPSLSLPSSHFSSSFKTAATSIEQQSSVNKGESTKYHFLVANAKFMLDEEEHFQEQLFERLRYFGERELVQDFWLVIEPKFLDNFPKITQRLRRPAVALVSTNGTWITFMKLRLDRVLYDSFEATSLDEALASNPTTLEFDKPKNWVAPYPKYEPGWWDTFLPKVTQESAV	failed
MWTYSEYIIFFGIYSFIGWVLETIFASVNDKKIVNRGFLTGFFCPIYGFGAILTVQCSRMVGLSFKNPIISLISSVIFSIFLVTFLEYVTGFILEAIFNCKWWDYSNDAANIHGYICLKYSLLWGMLAFLLVQTIHPLISKMVFNISATTKEKVSIFLLVYFMIDTIKSVIDALNLRQAIMEYSNFSINKYRERILKYKRLIIAFPRLIILNRDIRRIVNDRFYKIKLEIKSKIQELF	failed
MWYTVQPGDSLYTISQRFGVTIAQIKSANQLTSDIIYVGQRLYIPIGIQAPVVYTVRPGDTLYLIARRYNTTVDSLMALNNLSSTELRIGQQLTIPLYTEAVVNVGTANIRRGPGTNFGIITRMTNGARLPVIGFSNNWYQVRLYNGREGWISGSIVTRNVYSGRRPITGVLGFYTLEEGPTLPSSFTSFANNTGQLSSTALFMFRISAANPTTIEKFGEFTDQDVRNLVAIAHRNNVKIMPVVHNLLYRPGGTTLAKNVVKTLVSDPRNRNAFALNLVNLIERYGFDGVNIDIEDVFIEDSDNLSLLYTEISEVLRPRGYFFSASVPSRVSDEPFNPFSDPFNYSVIGRAVDEFVVMLYNEFGWPGSPPGPAVTIGWMERVLRYTMSKMPRDKIMAAVSVFGFDFNLTTGRNTYVTYQSAINLARRYNSEIIFNEERQTPMFTYRDAQGNQHEVWFEDARSLRSKIQLAWELGIKGVALWRLGMEDPNIWPMLRNEVVVRKF	failed
MWYYFQPKRLCHNSFMIPEKLLTYTKTIFEYSHSTVYIKDKNFHYQYMNNRGLKQLQLQEKDIMGMPDKALPFGKYAHFYNSHDYSAMEEIIYFQLDDCITKNGEKIFALSHKLPLKDEDGKTHGVIGFTKFMNLHQLMNNLNSKNTFLTPNLKINVNVDDWLKTTINLSRREMEVLYYFLQGKSIKLIAPLLHITERTVIFHLNNIKSKWGCYNKEDIYTKSFEKGLKNLTIIWDLLAMRS	failed
MYAGRRDPSHVGIVMVGSPATATLILNDKVVVDLEGETLRLENGDAIALRPQAFAVLRHLVQNANRLVSKAELLEAVWGGAAVTDDSLVQCIHEIRRALGDERYAVLATVSRRGYRLSLERSDESALGGPSIAVLPFATMSGGEPNDYFADGLVEDIITNLSKIPGLFVIARNSSFGFRGEKADLRTIAAELRVRYLLQGSLRQSGGRLRIYAQLVDGASATHVWADRFEGAATDVFDLQDRLTEQIVGSIEPSVRRAEIERAHRKRPESLDAYDLYLRALPHAHANTPAQTDKALQLLARSIELQPDYVAAHGYAAWCYEQRYLRNGLDPADKAAALSHADIALGINSDDPQAMSIGAFVRANLTRDYDAAVEVLDRALAWNNNSTLAFGFSALVSAHSERHQRAVEHAHKALRLSPLDDPLSYHPYCALALTHLFAGAFADAARYAALAVRANPGFSIPYAYLAASHVGLGNVEAAHSAARRLIEVAPNFSVGGYVRTNLFQPYLMDALAAALRKAGLPE	failed
MYCRMEFNFFMNDVVQMARKEMVESGYDQLTTPEEVDEVLKEKGTVLVMVNSVCGCAGGIARPAAAYMKNYDKKPDRFVTVFAGQDKEATARAREYFKGYAPSSPSFALLKDGEIQMMVERHEIEGHEPIQVVQKLEKAFDQYCS	failed
MYCWNPELYAFSSSAQKSWGIELLTKFPLKGNERVLDVGCGDGKLSAEIAKRLPEGSVLGIDLSEAMVCFAKNHYPKEQFPNLSFMLMDAGNVPFESEFDVIFSNAALHWIKEPKAIETVLKGFLKSLRPEGKLLAQFGGRGNAAEVLLVLNSMLEDEKWSPYFGNFVFPYGFYGPEEYGKWLKNAGFSVRRAELYSKDMTLKGKEGLSGWFASTWHPFTQRVPENLKEEFIDELAVNFIKLHPLDNEGYVHIRMVRLEIEADIEK	failed
MYEDNAACIAQLKDGYIKGDRTKHILPKFFFTHDLQKSGDVRVLQIRSNDNLSDLFTKALPTATFKKLVYRIGLRRLKDLDEYTHKGE	failed
MYEIKGHHHISMVTKNANENNHFYKNVLGLRRVKMTVNQDDPSMYHLFYGDKTGSPGTELSFFEIPLVGRTYRGTNAITRIGLLVPSEDSLHYWKERFEKFDVKHSEMTTYANRPALQFEDAEGLRLVLLVSNGEKVEHWETWEKSEVPAKHQIQGMGSVELTVRRLDKMASTLTEIFGYTEVSRNDQEAIFQSIKGEAFGEIVVKYLDGPTEKPGRGSIHHLAIRVKNDAELAYWEEQVKQRGFHSSGIIDRFYFKSLYFRESNGILFEIATDGPGFTVDGDVEHLGEKLDLPPFLEDQRAEIEANLAPIEEK	not failed
MYELVSPVNPLAVLRYIGHLLLVFSAVLLVPVLAAFVLGETDAAVIYGSSALVTAGTGFLLQKVLPDFELEIKEALILAALTFPLCSLVSAVPMAFSTGMPFLDAYFECVSGLTTTGLSLAPPSPTRLFFFTRSWLQWIGGIGIIVLVLGILIRPGTTAFRLYRVNFGESRIRPSVITTARTLGTVYLVLTLLSLLLLLFSGMPFYDAVCHTLSSISTGGFSTQAGSIGAYGGFLIPFLITVSCIMGAISFSLYPEVLKEPGTLIRDPQVRYLFGLSLLGTALFVLTLSGGEGGPELFHMMPDAVFQVVSALTGTGFSTIDLAPLSDASKGFLSAIMCIGGSIGSTTGGIKLFRLIVIVQLIKLVFYRFFLPREAITPLKVKSQVVDPDDFYRIMTYVLLYLAVLVFSAFIFMFYGINSADAIFETSSALATAGLSTGVTTPGMPSLLKLVLCADMLLGRVEIVPLFILLLPRTWFEINRNTGEKRSSKDTA	failed
MYENKIVPLQMDRRKYLQSCVENMSITFVLFGTINIFFNLLINLINIGRINYEHFFKLFSITSGLWIVIILVQITSYLFSSGFFENLATIFLHDNERNKGDIWNIKSIGMFLINIITLGWLSIFSFYGIFSYIINSFDLINNFMLSTTILNFSVNLLFVLNQFLYFLFKVHEIRNIEFHNCLIHFLPGFSRMLESIVLTVKSKIMDNLSKNKNFVKAKNKKRFIDHNSYPYGDQ	failed
MYFLLNLVGLIVIMAVVFLCSPQKKKIKWRPIITLIVLELLITWFMLGTKVGSWAIGKIGDFFTWLIACASDGIAFAFPSVMANETVDFFFSALLPIIFIVTFFDILTYFGILPWLIDKIGWVISKASRLPKLESFFSIQMMFLGNTEALAVIRQQLTVLSNNRLLTFGLMSMSSISGSIIGSYLSMVPATYVFTAIPLNCLNALIIANLLNPVHVPEDEDIIYTPPKEEKKDFFSTISNSMLVGMNMVIVILAMVIGYVALTSAVNGILGVFVHGLTNQTIFAYLFSPFAFLLGLPVHDAMYVAQLMGMKLATNEFVAMLDLKNNLKSLPPHTVAVATTFLTSFANFSTVGMIYGTYNSILDGEKSTVIGRNVWKLLVSGIAVSLLSAAIVGLFVW	failed
